Where two headings read alike, the source gives them in different places.
Columns and labels:
[1] = target: recombinant murine PrP 23–231 (murine) (UniProt P04925); experiment: ELISA
[2] = target: recombinant murine PrP 23–231 (murine) (UniProt P04925); experiment: ELISA; remark: listed apart in the source

UniProt P04925, sequence (P04925 23-231): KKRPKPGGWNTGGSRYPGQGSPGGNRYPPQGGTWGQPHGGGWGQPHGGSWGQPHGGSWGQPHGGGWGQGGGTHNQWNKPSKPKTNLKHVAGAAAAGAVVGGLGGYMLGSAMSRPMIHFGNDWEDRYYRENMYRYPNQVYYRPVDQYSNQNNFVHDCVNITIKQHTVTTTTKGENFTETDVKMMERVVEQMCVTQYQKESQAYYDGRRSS

Substance | EC50 [1] | EC50 [2]
Aβ1–42 fibrils (peptide) | 1730 nM | 
Aβ-derived diffusible ligands (ADDLs), a preparation of Aβ1–42 (peptide) | 234 nM | 113 nM

— publication PMC6431553
